Data reported in PMC8412950.

Molecular target: NRC3 NB-ARC domain (NRC3^NB-ARC, Val-152 to Ser-507) (Nicotiana benthamiana)
Experiment: SEC

Substance: Recombinant SS15 protein (Ser-25 to Ile-246, lacking signal peptide) (domain or fragment)
- stoichiometry N: 1
